{
  "source": "patent US20090118185A1",
  "about": "(UNIVERSITY OF ROCHESTER, published 2009)",
  "proteins": {"B1": {"name": "human activated protein C (protein)", "chain 1": "ANSFLEELRHSSLERECIEEICDFEEAKEIFQNVDDTLAFWSKHVDGDQCLVLPLEHPCASLCCGHGTCIDGIGSFSCDCRSGWEGRFCQREVSFLNCSLDNGGCTHYCLEEVGWRRCSCAPGYKLGDDLLQCHPAVKFPCGRPWKRMEKKRSHL", "chain 2": "LIDGKMTRRGDSPWQVVLLDSKKKLACGAVLIHPSWVLTAAHCMDESKKLLVRLGEYDLRRWEKWELDLDIKEVFVHPNYSKSTTDNDIALLHLAQPATLSQTIVPICLPDSGLAERELNQAGQETLVTGWGYHSSREKEAKRNRTFVLNFIKIPVVPHNECSEVMSNMVSENMLCAGILGDRQDACEGDSGGPMVASFHGTWFLVGLVSWGEGCGLLHNYGVYTKVSRYLDWIHGHIRDKEAPQKSWAP"}},
  "key": {"[1]": {"molecular_target": "T1, WT factor VIII (B-domainless recombinant human factor VIII procofactor)", "T1 chain 1": "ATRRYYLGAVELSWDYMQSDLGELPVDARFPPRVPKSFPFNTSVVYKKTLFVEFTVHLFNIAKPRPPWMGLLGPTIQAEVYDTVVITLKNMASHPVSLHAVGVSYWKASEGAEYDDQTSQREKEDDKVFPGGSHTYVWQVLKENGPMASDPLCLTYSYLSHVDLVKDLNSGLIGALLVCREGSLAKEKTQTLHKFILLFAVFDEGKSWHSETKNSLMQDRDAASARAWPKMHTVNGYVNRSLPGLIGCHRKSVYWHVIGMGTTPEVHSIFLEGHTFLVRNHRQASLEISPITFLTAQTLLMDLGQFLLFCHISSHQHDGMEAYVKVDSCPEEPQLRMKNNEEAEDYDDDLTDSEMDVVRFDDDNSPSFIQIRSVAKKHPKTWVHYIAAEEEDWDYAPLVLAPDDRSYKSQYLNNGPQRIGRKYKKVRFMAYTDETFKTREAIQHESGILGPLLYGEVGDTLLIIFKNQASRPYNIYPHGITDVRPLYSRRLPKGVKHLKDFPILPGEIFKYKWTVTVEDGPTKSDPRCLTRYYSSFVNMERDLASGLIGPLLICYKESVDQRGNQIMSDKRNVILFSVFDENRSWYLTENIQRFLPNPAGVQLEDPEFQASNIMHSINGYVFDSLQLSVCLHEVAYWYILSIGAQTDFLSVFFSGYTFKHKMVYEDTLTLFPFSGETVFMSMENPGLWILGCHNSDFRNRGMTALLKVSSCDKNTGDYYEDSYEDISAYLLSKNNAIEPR", "T1 chain 2": "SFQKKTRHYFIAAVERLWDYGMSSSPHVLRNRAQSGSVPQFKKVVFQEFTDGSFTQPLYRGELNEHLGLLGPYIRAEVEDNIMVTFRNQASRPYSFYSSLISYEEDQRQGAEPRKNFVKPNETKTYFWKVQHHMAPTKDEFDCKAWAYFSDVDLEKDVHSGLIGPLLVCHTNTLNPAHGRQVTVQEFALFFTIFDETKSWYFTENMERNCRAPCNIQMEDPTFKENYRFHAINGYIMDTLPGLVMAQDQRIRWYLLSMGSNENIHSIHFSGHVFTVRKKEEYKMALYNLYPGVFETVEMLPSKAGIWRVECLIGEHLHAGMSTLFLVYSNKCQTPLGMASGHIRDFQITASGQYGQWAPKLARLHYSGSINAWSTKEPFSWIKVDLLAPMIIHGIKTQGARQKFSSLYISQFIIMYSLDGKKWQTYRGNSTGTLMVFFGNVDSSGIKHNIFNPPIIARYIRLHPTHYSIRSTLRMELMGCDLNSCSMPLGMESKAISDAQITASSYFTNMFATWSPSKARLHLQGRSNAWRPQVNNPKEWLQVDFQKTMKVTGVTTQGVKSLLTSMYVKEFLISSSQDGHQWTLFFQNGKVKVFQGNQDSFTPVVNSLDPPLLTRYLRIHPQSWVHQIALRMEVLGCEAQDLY"}, "[2]": {"molecular_target": "T2, WT factor VIIIa (B-domainless recombinant human factor VIII activated by thrombin)", "T2 chain 1": "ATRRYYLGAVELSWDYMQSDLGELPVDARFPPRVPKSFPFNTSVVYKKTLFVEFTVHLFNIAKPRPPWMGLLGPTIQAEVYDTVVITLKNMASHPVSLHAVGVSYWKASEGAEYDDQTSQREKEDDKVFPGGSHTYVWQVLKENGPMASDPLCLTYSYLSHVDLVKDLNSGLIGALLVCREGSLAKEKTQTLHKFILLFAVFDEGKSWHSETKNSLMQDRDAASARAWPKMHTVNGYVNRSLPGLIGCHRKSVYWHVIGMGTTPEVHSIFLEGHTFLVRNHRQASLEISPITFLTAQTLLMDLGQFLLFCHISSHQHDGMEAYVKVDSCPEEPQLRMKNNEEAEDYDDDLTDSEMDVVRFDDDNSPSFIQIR", "T2 chain 2": "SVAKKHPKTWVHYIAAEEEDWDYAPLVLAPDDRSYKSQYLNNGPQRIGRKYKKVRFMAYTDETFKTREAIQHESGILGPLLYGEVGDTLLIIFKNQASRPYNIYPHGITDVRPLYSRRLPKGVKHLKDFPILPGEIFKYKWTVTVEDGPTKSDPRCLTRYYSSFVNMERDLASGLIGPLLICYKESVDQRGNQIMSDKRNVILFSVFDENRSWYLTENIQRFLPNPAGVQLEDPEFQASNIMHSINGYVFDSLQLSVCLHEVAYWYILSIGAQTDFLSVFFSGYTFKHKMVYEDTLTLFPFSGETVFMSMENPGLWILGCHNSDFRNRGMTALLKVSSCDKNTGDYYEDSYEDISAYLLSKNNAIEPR", "T2 chain 3": "T1 chain 2"}},
  "note": "Where “and” joins values, the source holds several entries; their conditions need not be identical. Identical values can stand only once.",
  "data": [
    {"protein": "B1", "values": [
      {"measurement": "A2 Cleavage (nM A2/min/nM APC) (nM A2/min/nM APC)", "setting": "[1]", "result": 0.1},
      {"measurement": "A1 Cleavage (nM A1/min/nM APC) (nM A1/min/nM APC)", "setting": "[2]", "result": "8.5 and 9.5"},
      {"measurement": "A2 Cleavage (nM A2/min/nM APC) (nM A2/min/nM APC)", "setting": "[2]", "result": "0.5 and 0.2"}
    ]}
  ]
}
